Laboratory results as given in article PMC10757996.

What was measured:
[1] = molecular target: Arginylglycylaspartic acid (RGD) peptide grafted on poly-L-lysine-graft-poly(ethylene glycol) (PLL-g-PEG/PEG-RGD); test: SPR; Goos-Hänchen lateral position shift read-out on a silver-GST plasmonic substrate; PLL-PEG-RGD immobilised on the GST layer through MPTES; 10 μg/mL integrin proteoliposomes flowed over; running buffer 1:10 dilution of PBS; lowest Mn2+ concentration of the series (1 nM); exponential fits of association and dissociation
[2] = molecular target: Arginylglycylaspartic acid (RGD) peptide grafted on poly-L-lysine-graft-poly(ethylene glycol) (PLL-g-PEG/PEG-RGD); test: SPR; Goos-Hänchen lateral position shift read-out on a silver-GST plasmonic substrate; PLL-PEG-RGD immobilised on the GST layer through MPTES; 10 μg/mL integrin proteoliposomes flowed over; running buffer 1:10 dilution of PBS; highest Mn2+ concentration of the series (1 mM); exponential fits of association and dissociation

αIIbβ3 integrin reconstituted into liposomes (integrin-embedded proteoliposomes) (from UniProt P08514 32-1039; P05106 27-788) (complex)
kobs [1]: 0.101 min⁻¹ | koff [1]: 0.00957 s⁻¹ | kobs [2]: 0.146 min⁻¹ | koff [2]: 0.00448 s⁻¹
